# Experimental data from PMC8036708.
# Columns and labels:
# [1] = biological target: adenovirus terminal protein-thioredoxin fusion protein (TP–Trx), bacterially expressed (adenovirus (serotype not given)); test: AlphaScreen or HTRF; 30 nM TP–Trx (or Trx tag alone) on nickel NTA donor beads, serial dilutions of GST-tagged importins or GST control on GST acceptor beads; 0.5% BSA added, dilutions in PBS, room temperature in the dark; one-phase association fit
# [2] = biological target: adenovirus terminal protein-thioredoxin fusion protein (TP–Trx), bacterially expressed (adenovirus (serotype not given))
substance,measurement,setting,value
"importin β1 (Imp β1), GST-tagged (from UniProt P70168 1-876) (natural protein)",Kd,[1],0.021 µM
same,"Nf/Cf of TP–Trx–AF594 microinjected into HeLa cells incubated with importazole (40 µM), a selective Imp β inhibitor; 1.62 with DMSO",[2],1.04
